In PMC10269693:

Test system: CN[C@@H]1[C@H](O)[C@H](NC)[C@H]2O[C@@]3(O)C(=O)C[C@@H](C)O[C@H]3O[C@@H]2[C@H]1O
Test: purified protein
Conditions: 5 mM ATP, 10 mM MgCl2, 50 mM HEPES pH 7.5, 37°C

Q: Which Km does the source give for ANT(9)-Ib (Enterococcus faecalis) here?
A: Its Km is 33.56 ± 8.1 µM.

Q: And the kcat?
A: The kcat was 2.6 ± 0.2 s⁻¹.

Q: And the kcat/Km?
A: Its kcat/Km is 83000 ± 21000 M⁻¹ s⁻¹.
